Results taken from patent publication US20260103529A1, “Amino Acid Sequences Directed Against the Melanocortin 4 Receptor and Polypeptides Comprising the Same for the Treatment of MC4R-Related Diseases and Disorders” (Confo Therapeutics N.V., priority 2022, published 2026).
Read-outs that look alike come from different tables or passages of the source.

How the values were obtained:
[1] = tested on: highly pigmented normal human epidermal melanocytes (NHEM-HP); assay: In vitro pigmentation assay, melanin synthesis, 2D NHEM highly pigmented; assay type: cell-based; settings: 10 μM, 10 days
Method: (§1) Highly and moderately pigmented melanocytes were seeded in 24-well plates and cultured in culture medium for 24 hours. The medium was then replaced by culture medium containing or not (control) the test compounds or the reference compounds (L-tyrosine at 1 mM, IBMX at 100 and 200 μM and NDP-MSH at 10 μM). The cells were then incubated for 10 days with treatment renewal at day 3 and day 7. All experimental conditions were performed in n=3. At the end of the incubation time, the culture supernatants were removed, and melanin was extracted by cell lysis using a 0.5 N NaOH solution. The optical density (OD) of each experimental point was measured at 405 nm and melanin quantity was determined according to melanin standard curve (standard curve ranging from 0.39 to 100 μg/ml). The results were expressed in μg/ml of melanin. […] NHEM-HP response to L-tyrosine and NDP-MSH was stronger than in NHEM-MP while IBMX induced a stronger response in the NHEM-MP.

human MC2R = target: T1, human MC2R (Homo sapiens, UniProt Q01718); assay: Flow cytometry binding to Flag-tagged receptor in HEK293T cells, MC2R; settings: 1 μM
T1 construct: Flag; expressed in transfected cells; host or cells: HEK293T
T1 sequence (Q01718 whole entry): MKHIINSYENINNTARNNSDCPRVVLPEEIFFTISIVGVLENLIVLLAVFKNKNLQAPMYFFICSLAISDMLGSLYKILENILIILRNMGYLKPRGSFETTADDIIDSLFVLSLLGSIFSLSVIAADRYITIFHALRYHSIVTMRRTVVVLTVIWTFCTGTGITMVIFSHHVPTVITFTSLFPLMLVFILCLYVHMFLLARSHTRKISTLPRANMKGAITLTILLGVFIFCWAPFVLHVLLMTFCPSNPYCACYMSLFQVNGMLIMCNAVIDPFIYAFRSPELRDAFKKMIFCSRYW
Method: (§2) To confirm MC4R activation, dose-dependent nanobody-induced cAMP signaling was assessed (Lance Ultra HTRF). […] Binding of pN162 to the human melanocortin receptor subtypes MC1R, MC2R, MC3R, MC4R or MC5R transiently expressed as Flag-tagged receptors in HEK293T cells was assessed by flow cytometry.

WT human MC4R = target: T2, WT human MC4R (Homo sapiens, UniProt P32245); assay: Gs ConfoSensor recruitment assay; assay type: cell-based; settings: for EC50: WT human MC4R-expressing HEK293T cells
T2 construct: Flag (N); expressed in transfected cells; host or cells: HEK293T
T2 sequence (P32245 whole entry): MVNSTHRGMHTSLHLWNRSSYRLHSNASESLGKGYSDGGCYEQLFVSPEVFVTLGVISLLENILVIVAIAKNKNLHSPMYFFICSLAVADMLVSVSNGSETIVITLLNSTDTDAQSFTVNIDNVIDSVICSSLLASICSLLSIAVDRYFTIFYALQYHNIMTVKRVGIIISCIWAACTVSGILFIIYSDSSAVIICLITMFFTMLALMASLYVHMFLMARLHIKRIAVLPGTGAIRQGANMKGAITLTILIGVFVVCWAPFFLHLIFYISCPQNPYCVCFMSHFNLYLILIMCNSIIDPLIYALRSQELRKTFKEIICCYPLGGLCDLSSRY

human wild type MC5R = target: T3, human wild type MC5R (Homo sapiens, UniProt P33032); assay: cAMP GloSensor assay, MC5R; assay type: cell-based
T3 construct: expressed in transfected cells; host or cells: HEK293 / HEK 293T, pcDNA3.1(+)
T3 sequence (P33032 whole entry): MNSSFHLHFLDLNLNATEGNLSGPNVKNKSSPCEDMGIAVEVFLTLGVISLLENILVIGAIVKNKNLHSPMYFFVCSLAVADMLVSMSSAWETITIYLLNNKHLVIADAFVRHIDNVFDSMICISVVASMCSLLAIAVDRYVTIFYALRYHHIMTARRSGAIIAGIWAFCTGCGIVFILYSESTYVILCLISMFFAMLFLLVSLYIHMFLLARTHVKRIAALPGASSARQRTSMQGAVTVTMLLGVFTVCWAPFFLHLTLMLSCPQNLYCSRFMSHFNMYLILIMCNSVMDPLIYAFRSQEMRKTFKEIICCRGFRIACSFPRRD

human wild type MC1R = target: T4, human wild type MC1R (Homo sapiens, UniProt Q01726); assay: cAMP GloSensor assay, MC1R; assay type: cell-based
T4 construct: expressed in transfected cells; host or cells: HEK293 / HEK 293T, pcDNA3.1(+)
T4 sequence (Q01726 whole entry): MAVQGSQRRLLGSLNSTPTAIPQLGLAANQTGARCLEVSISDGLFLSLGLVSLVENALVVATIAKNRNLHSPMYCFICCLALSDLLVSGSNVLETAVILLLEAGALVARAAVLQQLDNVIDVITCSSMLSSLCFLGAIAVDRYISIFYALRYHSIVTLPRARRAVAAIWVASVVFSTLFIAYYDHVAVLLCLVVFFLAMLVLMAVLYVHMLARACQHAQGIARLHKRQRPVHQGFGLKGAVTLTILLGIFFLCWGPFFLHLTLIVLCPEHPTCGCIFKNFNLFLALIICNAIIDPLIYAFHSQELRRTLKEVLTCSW

MC4R = assay: Radioligand displacement, CHO stable cell line; assay type: binding; settings: mean ± spread, n = 2
human wild type MC4R = human wild type MC4R (Homo sapiens, UniProt P32245); assay: cAMP signaling assay (Lance Ultra HTRF); assay type: cell-based; set-up: double Twin Strep tag; expressed in transfected cells; host or cells: HEK293; settings: purified nanobodies, human MC4R-overexpressing HEK293 cells, read-out: potencies, MC4R-mediated dose-dependent cAMP accumulation
Sequence of human wild type MC4R (P32245 whole entry): as the sequence (P32245 whole entry) above
Method: as §2

DIO mice = assay: Diet-induced obese (DIO) mouse study, acute setting, ICV administration; assay type: in vivo
Method: The mouse studies described in Examples 2 and 3 were performed at a fully AAALAC accredited unit (Gubra, Denmark), and all animal experiments were conducted in accordance with the CRO's bioethical guidelines, which are fully compliant to internationally accepted principles for the care and use of laboratory animals. All experiments were licensed by the Danish Animal Experimentation Council. This animal model is based on male C57BI/6J mice that are fed for a minimum of 18 weeks a 60% high fat diet that result in rapid weight gain. The mice were obtained from commercial vendors in Europe and United States transferred to Gubra's animal unit. The animal room environment is controlled (targeted ranges: temperature 21±2° C.; relative humidity 50±10%). The animals are maintained on a reversed 12 h light/dark cycle and have access to plenty of bedding material, shelters and chewing sticks. Animals were dosed just before lights went off.
Male DIO mice (5 weeks of age at time of arrival and HF diet induction, 46 weeks of age at study start, n=50) had ad libitum access to 60% high fat diet (D12492, Research diets) and water. The DIO mice were acclimatized to an automated real-time food intake monitoring system (MoNI system) individually housed in the system for 14 days prior to study start. The animals went through ICV cannulation on study day −6/−5 and on study day−1, animals were randomized into 5 treatment groups (n=8 per group) based on body weight (PM, day−2).

human MC1R = target: T5, human MC1R (Homo sapiens, UniProt Q01726); assay: Flow cytometry binding to Flag-tagged receptor in HEK293T cells, MC1R; settings: 1 μM
T5 construct: Flag; expressed in transfected cells; host or cells: HEK293T
T5 sequence (Q01726 whole entry): as the sequence (Q01726 whole entry) above
Method: as §2

[2] = tested on: moderately pigmented normal human epidermal melanocytes (NHEM-MP); assay: In vitro pigmentation assay, melanin synthesis, 2D NHEM moderately pigmented; assay type: cell-based; settings: 10 days
Method: as §1

[3] = GloSensor head-to-head receptor subtype comparison
[4] = pN162 0.5 and 5 nmol ICV on day 0 and day 2, study day 4

binding to MC2R by flow cytometry (human MC2R): No binding could be detected
Gs recruitment (WT human MC4R; Flag-tagged WT human MC4R HEK293T cells): dose-dependently recruits
EC50 (WT human MC4R; No Ca^2+, read-out: Gs ConfoSensor No Ca^2+ (EC50)): 8.5 ± 2.1 nM
dependence of Gs recruitment on Ca2+ ions (WT human MC4R; absence vs presence of 1 mM Ca2+): independent of Ca^2+ ions
EC50 (WT human MC4R; read-out: Gs ConfoSensor 1 mM Ca^2+ (EC50), 1 mM Ca^2+): 12 ± 5 nM
cAMP potency (EC50) MC5R (human wild type MC5R; GloSensor, average EC50, human MC5R): No effect
cAMP potency (EC50) MC1R (human wild type MC1R; GloSensor, average EC50, human MC1R): No effect
EC50 (human wild type MC4R): 0.7 nM
binding to MC1R by flow cytometry (human MC1R): No binding could be detected
B1: pN162: agonistic anti-MC4R VHH, SEQ ID NO: 184; parental clone for potency maturation (protein)
VHH: QVQLVESGGGLVQPGGSLRLSCAASGSAFSLNVMGWYRQTPGNQRALVAEITKDGSTNYADSAKGRFTISRDNAKNTVHLQMDSLKPEDTAVYYCKARTGRIVRPLDYWGQGTQVTVSS
modifications: pN0162
melanin synthesis [1]: 89 % of the control
detectable cAMP signaling, MC5R (human wild type MC5R; [3]): only induced detectable signaling on MC4R
detectable cAMP signaling, MC1R (human wild type MC1R; [3]): only induced detectable signaling on MC4R
Radioligand displacement (MC4R): 6.48 ± 1.96 nM
cumulative food intake after first dose (DIO mice; pN162 0.5 and 5 nmol ICV): reduced by pN162 in a dose-dependent manner
cumulative food intake compared to vehicle (DIO mice; [4]): reduced
relative body weight compared to vehicle (DIO mice; [4]): reduced
modulation of melanin synthesis [2]: did not modulate
